Source: patent publication US5871995

Key:
[1] = molecular target: phenylalanyl-glycyl-phenylalanyl-glycine
[2] = molecular target: phenylalanyl-glycyl-phenylalanyl-hydroxylglycine

| Enzyme activity n mole/h/ml medium, PheGlyPheGly to PheGlyPhehydroxyGly (n mole/h/ml medium) [1] | Enzyme activity n mole/h/ml medium, PheGlyPhehydroxyGly to PheGlyPhe-NH2 + glyoxylic acid (n mole/h/ml medium) [2] | Substance |
| --- | --- | --- |
| 2.5 | 4.2 | Enzyme expressed from plasmid SV-203 (Signal sequence + N-terminal domain + C-terminal domain) in COS-7 cells (from UniProt P14925) |
| 2.8 | < 2 | Enzyme expressed from plasmid SV-a (Signal sequence + N-terminal domain) in COS-7 cells (from UniProt P14925) |
| 0.4 | 10.8 | Enzyme expressed from plasmid SV-b (Signal sequence + C-terminal domain) in COS-7 cells (from UniProt P14925) |
